Paper PMC6270756

Target: Nucleoside 2'-deoxyribosyltransferase from Bacillus psychrosaccharolyticus CECT 4074 (Bacillus psychrosaccharolyticus)
Experiment: SEC; pure BpNDT on Sepharose 12 10/300 GL column (GE Healthcare); native mass estimated

## Nucleoside 2'-deoxyribosyltransferase from Bacillus psychrosaccharolyticus CECT 4074 (enzyme)
  stoichiometry N: 6
